Results on 2 molecules are retold here after patent US20230372536A1, “NANOMATERIAL AND METHODS OF USE THEREOF” (UNIVERSITY OF CONNECTICUT, priority 2020, published 2023).

One data set concerns hMSCs. The data set can be described thus: Cell proliferation (CCK-8). The settings on record: for cell proliferation: 3 or 5 days of culture. Format: cell-based, human. As to the method:
Cell proliferation. Five groups of samples were added to an untreated 96-well plate for the cell proliferation experiment. For the JBNT group, 3.75 μL of 1 mg mL^−1 JBNTs was added to 596.25 μL distilled water to obtain a 600 μL JBNT solution. The concentration of the solution was 6.25 μg mL^−1. For the TGF-β1 group, 7.5 μL of 10 μg mL^−1 TGF-β1 was dispersed in 592.5 μL distilled water to obtain a 0.125 μg mL^−1 test solution. For the matrilin-3 group, 30 μL of 10 μg mL^−1 matrilin-3 was dispersed in 570 μL distilled water to obtain a 0.5 μg mL^−1 test solution. For the J/T/M NM group, 7.5 μL of 10 μg mL^−1 TGF-β1 was mixed with 30 μL of 10 μg mL^−1 matrilin-3 and pipetted several times. Then, 3.75 μL of 1 mg mL^−1 JBNTs was added to the solution and pipetted. The J/T/M NM solution was diluted with 558.75 μL distilled water. The final concentrations of JBNT, TGF-β1, and matrilin-3 samples were 6.25 μg mL^−1, 0.125 μg mL^−1, and 0.5 μg mL^−1, respectively. As a control group, 600 μL distilled water was used. Each sample group was divided into 6 wells, with each well receiving a 100 μL sample. The three plates were placed into a −80° C. freezer for one hour and then freeze-dried with a lyophilized instrument.
hMSCs were seeded onto these plates. Each well received 100 μL cell suspension containing 5,000 cells. Three plates were incubated at 37° C. for 1 day, 3 days, or 5 days (5% CO2). After incubation, 10 μL CCK-8 solution was added to each well with cells. Then, each plate was incubated at 37° C. for another 2 h. The absorption values of the plates were measured with multi-mode microplate readers at 450 nm. A series of a known number of hMSCs were seeded onto a 96-well plate. After incubating for 4 h, the absorption values of the cells were measured with the CCK-8 assay. A standard curve was generated according to the absorption values and the numbers of hMSCs. Cell proliferation was calculated with the absorption standard curve.

For data set [1] the following is noted: free TGF-β1; cited from earlier work.
A further data set in a line: Zeta-potential test. The data set is classed as physicochemical. The settings on record: dispersed in H2O. As to the method: Zeta-potential test. Three groups of samples were prepared. For the matrilin-3 group, 160 μL of 10 μg mL^−1 matrilin-3 was dispersed in 640 μL H2O to obtain an 800 μL test solution. For the mixed matrilin-3/TGF-β1 group, 160 μL of 10 μg mL^−1 matrilin-3 was mixed with 40 μL of 10 μg mL^−1 TGF-β1 and pipetted several times. The mixture was then dispersed in 600 μL H2O to obtain an 800 μL test solution. For the J/T/M NM group, 160 μL of 10 μg mL^−1 matrilin-3 was mixed with 40 μL of 10 μg mL^−1 TGF-β1 and pipetted several times. Then, 20 μL of 1 mg mL^−1 JBNTs was added to the solution and pipetted several times. Finally, the J/T/M NM solution was dispersed in 580 μL H2O to obtain an 800 μL test solution. The zeta-potential values of the three groups of samples were tested with a Zetasizer Nano ZS.

Turning to “TGF-β1: Recombinant human TGF-β1 (CHO derived, PeproTech), chondrogenic growth factor”, the cell proliferation entry with hMSCs is reported as “more obvious effects related to the promotion of cell proliferation”. In addition, in the data set on hMSCs (one day of culture), the “cell number (proliferation)” value is listed as “significantly higher cell numbers”. Besides, in data set [1], the plasma half-life is under 1.67 h.

B1: matrilin-3: Recombinant human matrilin-3 protein (R&D Systems), cartilage-specific ECM protein (protein, UniProt O15232 29-486, looked up)
Matrilin-3: DPVARPGFRRLETRGPGGSPGRRPSPAAPDGAPASGTSEPGRARGAGVCKSRPLDLVFIIDSSRSVRPLEFTKVKTFVSRIIDTLDIGPADTRVAVVNYASTVKIEFQLQAYTDKQSLKQAVGRITPLSTGTMSGLAIQTAMDEAFTVEAGAREPSSNIPKVAIIVTDGRPQDQVNEVAARAQASGIELYAVGVDRADMASLKMMASEPLEEHVFYVETYGVIEKLSSRFQETFCALDPCVLGTHQCQHVCISDGEGKHHCECSQGYTLNADKKTCSALDRCALNTHGCEHICVNDRSGSYHCECYEGYTLNEDRKTCSAQDKCALGTHGCQHICVNDRTGSHHCECYEGYTLNADKKTCSVRDKCALGSHGCQHICVSDGAASYHCDCYPGYTLNEDKKTCSATEEARRLVSTEDACGCEATLAFQDKVSSYLQRLNTKLDDILEKLKINEYGQIHR
On to B1, for which the cell proliferation entry with hMSCs was “moderately increase cell proliferation”. The zeta-potential result in “Zeta-potential test” is “approximately −15 mV”.
